Reference: doi:10.1101/2025.07.01.662498, “Automodification of N-terminal serine residues in PARP2 impacts PARP2 release from DNA damage sites”

Biological target: PARP2 WT (human, UniProt Q9UGN5 1-583)
Experiment: fluorescence polarization; HPF1 not mentioned for this value; 10 mM HEPES pH 8.0, 150 mM NaCl, 0.1 mg/ml BSA, 0.1 mM TCEP, 0.1 mM EDTA, 25 C (FP)
Details: protein: recombinant; tags: His6-TEV, tag cleaved; nicked dumbbell: two hairpins with TTTT loops, one strand

Chain of PARP2 WT (Q9UGN5 whole entry): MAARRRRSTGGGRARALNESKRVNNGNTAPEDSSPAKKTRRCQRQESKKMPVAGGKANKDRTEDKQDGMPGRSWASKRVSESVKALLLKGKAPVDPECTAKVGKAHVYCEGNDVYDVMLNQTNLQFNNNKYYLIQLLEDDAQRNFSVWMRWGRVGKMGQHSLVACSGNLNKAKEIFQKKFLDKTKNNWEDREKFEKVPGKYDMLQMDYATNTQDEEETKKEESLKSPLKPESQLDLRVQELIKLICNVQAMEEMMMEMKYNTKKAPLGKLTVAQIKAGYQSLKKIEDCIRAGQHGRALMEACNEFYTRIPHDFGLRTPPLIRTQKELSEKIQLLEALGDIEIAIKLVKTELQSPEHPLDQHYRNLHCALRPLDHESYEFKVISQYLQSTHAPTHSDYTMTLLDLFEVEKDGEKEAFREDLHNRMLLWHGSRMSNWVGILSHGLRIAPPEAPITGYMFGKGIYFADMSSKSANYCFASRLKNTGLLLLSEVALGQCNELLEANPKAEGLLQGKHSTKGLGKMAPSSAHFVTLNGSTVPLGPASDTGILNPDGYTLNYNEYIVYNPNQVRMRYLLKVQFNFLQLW

B1: fluorescein-labelled nicked dumbbell DNA, 5'-phosphate (structured_DNA)
DNA: GGAAGTCTTTTGACTTCCTCGAAGCTTTTGCTTCGA
modifications: 5'-phosphate
How did the Kd turn out when B1 was run?
Its Kd is 4.8 ± 2.9 nM.
